From US10400224B2, “Enantioselective modified esterase enzyme and method for the production thereof” (CORPORACIÓN CORPOGEN, priority 2014, dated 2019)

Columns and labels:
[1] = Optimum temperature and pH of the modified enzyme (p-nitrophenyl ester assay); type: biochemical
Description: The activity of the modified enzyme was determined spectrophotometrically at 405 nm in a range of temperatures between 45 and 75° C., using p-nitro phenyl of other chains C6 to C10 (Sigma-Aldrich) as substrate. One unit of esterase activity was defined as the capacity of the enzyme to release 1 μmol min^−1 of p-nitrophenol under the essay conditions. The molar absorbance coefficient was of 16.900 M^−1 cm^−1. The mixture consisted of 448 μl of the Tris-HCl 50 mM buffer at 9.0 pH that contained 50 μl of p-nitrophenyl diluted in isopropanol and 2 μl of the solution stock of the protein. All the assays were made by triplicate and the average was calculated.
The optimum temperature of the modified enzyme was evaluated between 30 and 90° C. in buffer Tris HCl 50 mM (pH 9.0) exposing the enzyme to 30 minutes in each evaluated temperature (Suzuki et al., 2004, Park et al., 2006). […]
It was evaluated the activity of the enzyme by means of the p-nitrophenyl ester with some modifications, since for evaluating different pH values were used different buffer solutions, depending of the pH to evaluate: buffer acetate 50 mM (pH 5.0-6.0) buffer succinate (pH 4.0-5.5), MES (pH5.5-7.0). […] The protein was incubated for 15 minutes at a temperature higher than 45° C. and lower than 75° C. and then the quantification was made.

[2] = Storage of the purified modified protein in Tris-HCl buffer; type: physicochemical; settings: Tris-HCL buffer at 9.0 pH, 4° C.
Description: Thereafter, the product of the elution was concentrated in Amicon columns of 30 kDa. This concentration process was strictly necessary in order to be able to rule out the elution solution in which it was the protein and permit to leave it in a Tris-HCL buffer at a 9.0 pH, which permits stability to the modified protein. […] The purity of the protein was evaluated in a SDS-PAGE gel at 12% (p/v).

[3] = Kinetic resolution of phenyl ester of naproxen (1H-NMR, chiral HPLC); type: biochemical
Description: (§1) The enantioselectivity was evaluated by means of the kinetic resolution of the substrates phenyl ester naproxen and pNP ester naproxen. The procedure was the following (Chow et al., 2012):
(§2) i) 69.29 mL of a buffer phosphate solution (100 mM, pH 8.0) was mixed with 8 mL of DMSO-d6 and 2.64 mL of the stock solution of the substrate (10 mM in DMSO-d6). To this solution, it was added 200 μl of the enzyme to evaluate. The reaction was performed under continuous agitation at a temperature between 45° C. and 75° C. for 40 minutes.
(§3) ii) The reaction was stopped by adding a concentrated solution of HCl (pH 1.0). Immediately, the naproxen was extracted with MTBE twice with 20 ml of the solution.
(§4) iii) The extracted mixture of naproxen was dried under reduced pressure conditions. The transformation of this substrate was determined by means of MRI spectrographs (1H-NMR, Hydrogen-1 nuclear magnetic resonance) in which were compared the signals generated by the methyl groups from the naproxen and its corresponding esters.
(§5) iv) After measuring the samples containing the naproxen and the phenyl ester of naproxen, these samples were mixed with MTBE, 20 mL and extracted again with 20 mL, from an aqueous solution of NaHCO3.
(§6) v) The aqueous phase was acidified with HCl and it was extracted with MTBE, 20 ml. The extracted naproxen was derivatized to methyl ester through the addition of a solution of diazomethane 0.5 M in ethanol. The solvent was removed by a reduced pressure.
(§7) vi) The enantiomeric excess of the methyl ester ibuprofen was determined by means of chiral liquid high efficiency chromatography (HPLC—High performance liquid chromatography) (Dionex) using a Chiralcel ODH, under the following conditions • A mobile phase n-heptane: isopropanol with a ratio of 99:1 • A flow of 0.5 mL.min^1 • Reading at 225 nm.
(§8) vii) The retention time for the (S) and (R) enantiomers of methyl ester naproxen were of 22.84 and 19.39 minutes, respectively.

[4] = Kinetic resolution of pNP ester of naproxen (1H-NMR, chiral HPLC); type: biochemical
Description: as §1, §2, §3, §4, §5, §6, §7, §8
viii) The samples evaluated by NMR, underwent an additional test for determining the ee, by means of chiral HPLC with a CD detector (Jasco) using a Hyperclone ODS C18 column, under the following conditions: • A mobile phase of acetonitrile:water in a ratio of 80:20. • Flow of 0.5 mL.min^−1 • Reading of 220 nm
ix) The retention time for the p-NP ester of naproxen was of 3.83 minutes. The CD signal was measured at 280 nm.

[5] = Kinetic resolution of racemic phenyl ester of ibuprofen (chiral HPLC); type: biochemical
Description: An evaluation was performed analytical scale to deter mine the kinetic resolution of phenyl ester substrates of ibuprofen and naproxen (Chow et al., 2012). The evaluation of the kinetic resolution for phenyl ester substrates of ibuprofen was developed in the following manner:
i) A solution with 17.32 Ml of buffer phosphate (100 mM, pH 8.0) was mixed with 2 ml. of DMSO and 0.66 mil of the stock solution of the substrate (10 mM in DMSO). To this solution it was added 100 μl of the enzyme to evaluate. The reaction was made with continuous agitation at a temperature from 45° C. and 75° C. for 80 minutes.
ii) The reaction was stopped by the addition of a concentrated solution of HCl (pH 1.0). Immediately thereafter, it was extracted the ibuprofen with methyl tertiary butyl ether (MTBE) twice with 20 ml of the solution.
iii) The ibuprofen was derivatized as a methyl ester after having added a solution of diazomethane 0.5 M in ethanol. The solvent was removed by means of reduction of pressure.
iv) The enantiomeric excess of the phenyl ester Ibuprofen and of the methyl ester ibuprofen was determined by means of chiral liquid high efficiency chromatography (HPLC—High performance liquid chromatography) (Dionex) using a Chiralpak IA column, under the following conditions: • A mobile phase n-heptane:isopropanol with a ratio of 99.8:0.2 • A flow of 0.5 mL.min^1 • Reading at 210 nm.
v) The retention time for the enantiomer (S) methyl ester ibuprofen was of 10:23 minutes, while that for the enantiomer (R) methyl ester ibuprofen was of 11:17 minutes. The retention time for the enantiomers (S) and (R) phenyl ester ibuprofen were of 16.32 and 18.07 respectively.

[6] = calculated by method of Kroutil et al, 1997

B1: 499EST: esterase enzyme of SEQ No. 2 from strain USBA-GBX-499 with a C-terminal tail of 5-10 histidine residues (protein, listed as Acidicaldus sp.)
chain: MPLDRHAEAVLEMIRQSGRPPYETLTPAEARGLYRQAREVLAPEPPPVAEVRDLSLPHPAGPALPTRLYRPQQGGAPLPLLVYFHGGGWVIGDLETHDVVCREIANRAGIGVLSIDYRLAPEHKFPAAVEDAFAATRWAAKEAPSLGFDPARLAVGGDSAGGNLAAVVSLLAREQGGPSIAFQLLIYPATDLGMTHPSHQRWAEGYLLTRPTMEWFRAHYLTDPTREIADWRVSPLRAPDLRGLPPAFVLTAEYDPLVDEGEDYAARLAAAGVPVATHRVPGMIHGFLTMGKAIPAANEALGLIAERLRAALA
modifications: C-terminal histidine tail; amino acid sequence of 499EST
pH of optimum activity [1]: 9.0 | temperature of optimum activity [1]: 55 °C | storage time [2]: several months | conversion ([3]; 1H-RMN): 52% | ee of naproxen product ([3]; HPLC): 65% | enantioselectivity E ([3]; phenyl ester of naproxen): 10 | conversion ([4]; 1H-RMN): 49% | ee of naproxen product ([4]; HPLC): 31% | enantioselectivity lower for the pNP ester than for the phenyl ester ([4]; naproxen esters): 5 times | enantioselectivity E ([4]; pNP ester of naproxen): 2 | conversion c [5, 6]: 56% | enantioselectivity E [5, 6]: 4 | ee of the substrate (phenyl ester of ibuprofen) ([5]; chiral HPLC): 50% | ee of the product ([5]; chiral HPLC, product derivatized as methyl ester): 40%
